# According to US20230021388A1 (VELOSBIO, published 2023):
# Molecular target: T1, recombinant human ROR1 extracellular domain (human, UniProt Q01973 30-406)
# T1 construct: biotinylated for the filter lifts; also called huROR1-ECD; human ROR1-ECD
# Experiment: ELISA, soluble Fab on coated huROR1-ECD
# Method: The previously described filter lift assay provides a visual, qualitative assessment of antigen binding (Example 1). In order to assess the ROR1 binding activity of Ab1 Fab in a more quantitative fashion, an ELISA assay was developed. A 96-well Costar-3366 plate was coated with 50 μL/well of 1 μg/mL human ROR1-ECD (ACROBiosystems, cat. #RO1-H522y) in PBS overnight at 4° C. The plate was rinsed once with PBS-T and blocked with 100 μL/well of 5% M-P for 1 h at 25° C. Fab samples were serially diluted 3-fold using 5% M-P and 50 μL/well was incubated for 1 h at 25° C. The plate was washed three times with PBS-T and 50 μL/well anti-human kappa, and HRP conjugate (Southern Biotech, cat. #2060-05) diluted 10,000-fold in 5% M-P was added for 1 h at 25° C. In certain assays (extended wash format), the plate was placed in large volumes (up to 1 L) of PBS-T and incubated, with mixing, for 2-5 h prior to the addition of anti-human kappa, HRP conjugate. The plate was washed three times with PBS-T, and developed with 50 μL/well 1-Step Ultra TMB-ELISA (Thermo Scientific, cat. #34028). The reaction was terminated by the addition of 2 N H2504 and the A450 was determined using a Spectramax plate reader.
# T1 sequence (Q01973 30-406 limits assumed): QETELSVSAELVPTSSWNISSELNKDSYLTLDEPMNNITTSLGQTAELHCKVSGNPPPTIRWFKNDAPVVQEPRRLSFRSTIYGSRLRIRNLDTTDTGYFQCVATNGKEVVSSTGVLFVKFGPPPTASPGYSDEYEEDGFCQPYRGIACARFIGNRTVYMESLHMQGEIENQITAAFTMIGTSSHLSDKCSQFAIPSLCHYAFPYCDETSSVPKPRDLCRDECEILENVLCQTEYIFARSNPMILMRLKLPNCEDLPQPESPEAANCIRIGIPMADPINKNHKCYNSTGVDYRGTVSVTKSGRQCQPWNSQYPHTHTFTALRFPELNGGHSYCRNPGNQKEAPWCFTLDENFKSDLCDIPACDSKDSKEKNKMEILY
row,Binder,Kd
1,"Ab1 Fab variant H1 A30P (Fab, V domains shown, Fab) VH: QVQLQESGPGLVKPSQTLSLTCTVSGYPFTAYNIHWVRQAPGQGLEWMGSFDPYDGGSSYNQKFKDRLTISKDTSKNQVVLTMTNMDPVDTATYYCARGWYYFDYWGHGTLVTVSS VL: DIVMTQTPLSLPVTPGEPASISCRASKSISKYLAWYQQKPGQAPRLLIYSGSTLQSGIPPRFSGSGYGTDFTLTINNIESEDAAYYFCQQHDESPYTFGEGTKVEIK",12 nM
2,"Ab1 Fab variant H2 F58I (Fab, V domains shown, Fab) VH: QVQLQESGPGLVKPSQTLSLTCTVSGYAFTAYNIHWVRQAPGQGLEWMGSIDPYDGGSSYNQKFKDRLTISKDTSKNQVVLTMTNMDPVDTATYYCARGWYYFDYWGHGTLVTVSS VL: DIVMTQTPLSLPVTPGEPASISCRASKSISKYLAWYQQKPGQAPRLLIYSGSTLQSGIPPRFSGSGYGTDFTLTINNIESEDAAYYFCQQHDESPYTFGEGTKVEIK",1.8 nM
3,"Ab1 Fab variant H2 G66E (Fab, V domains shown, Fab) VH: QVQLQESGPGLVKPSQTLSLTCTVSGYAFTAYNIHWVRQAPGQGLEWMGSFDPYDEGSSYNQKFKDRLTISKDTSKNQVVLTMTNMDPVDTATYYCARGWYYFDYWGHGTLVTVSS VL: DIVMTQTPLSLPVTPGEPASISCRASKSISKYLAWYQQKPGQAPRLLIYSGSTLQSGIPPRFSGSGYGTDFTLTINNIESEDAAYYFCQQHDESPYTFGEGTKVEIK",0.9 nM
4,"Ab1 Fab variant H2 G66N (Fab, V domains shown, Fab) VH: QVQLQESGPGLVKPSQTLSLTCTVSGYAFTAYNIHWVRQAPGQGLEWMGSFDPYDNGSSYNQKFKDRLTISKDTSKNQVVLTMTNMDPVDTATYYCARGWYYFDYWGHGTLVTVSS VL: DIVMTQTPLSLPVTPGEPASISCRASKSISKYLAWYQQKPGQAPRLLIYSGSTLQSGIPPRFSGSGYGTDFTLTINNIESEDAAYYFCQQHDESPYTFGEGTKVEIK",2.2 nM
5,"Ab1 Fab variant H2 D76V (Fab, V domains shown, Fab) VH: QVQLQESGPGLVKPSQTLSLTCTVSGYAFTAYNIHWVRQAPGQGLEWMGSFDPYDGGSSYNQKFKVRLTISKDTSKNQVVLTMTNMDPVDTATYYCARGWYYFDYWGHGTLVTVSS VL: DIVMTQTPLSLPVTPGEPASISCRASKSISKYLAWYQQKPGQAPRLLIYSGSTLQSGIPPRFSGSGYGTDFTLTINNIESEDAAYYFCQQHDESPYTFGEGTKVEIK",1.8 nM
6,"Ab1 Fab variant H2 G67K (Fab, V domains shown, Fab) VH: QVQLQESGPGLVKPSQTLSLTCTVSGYAFTAYNIHWVRQAPGQGLEWMGSFDPYDGKSSYNQKFKDRLTISKDTSKNQVVLTMTNMDPVDTATYYCARGWYYFDYWGHGTLVTVSS VL: DIVMTQTPLSLPVTPGEPASISCRASKSISKYLAWYQQKPGQAPRLLIYSGSTLQSGIPPRFSGSGYGTDFTLTINNIESEDAAYYFCQQHDESPYTFGEGTKVEIK",2.3 nM
7,"Ab1 Fab variant H2 F58V (Fab, V domains shown, Fab) VH: QVQLQESGPGLVKPSQTLSLTCTVSGYAFTAYNIHWVRQAPGQGLEWMGSVDPYDGGSSYNQKFKDRLTISKDTSKNQVVLTMTNMDPVDTATYYCARGWYYFDYWGHGTLVTVSS VL: DIVMTQTPLSLPVTPGEPASISCRASKSISKYLAWYQQKPGQAPRLLIYSGSTLQSGIPPRFSGSGYGTDFTLTINNIESEDAAYYFCQQHDESPYTFGEGTKVEIK",0.9 nM
8,"Ab1 Fab variant H1 F31I (Fab, V domains shown, Fab) VH: QVQLQESGPGLVKPSQTLSLTCTVSGYAITAYNIHWVRQAPGQGLEWMGSFDPYDGGSSYNQKFKDRLTISKDTSKNQVVLTMTNMDPVDTATYYCARGWYYFDYWGHGTLVTVSS VL: DIVMTQTPLSLPVTPGEPASISCRASKSISKYLAWYQQKPGQAPRLLIYSGSTLQSGIPPRFSGSGYGTDFTLTINNIESEDAAYYFCQQHDESPYTFGEGTKVEIK",5.8 nM
9,"Ab1 Fab variant H1 A33S (Fab, V domains shown, Fab) VH: QVQLQESGPGLVKPSQTLSLTCTVSGYAFTSYNIHWVRQAPGQGLEWMGSFDPYDGGSSYNQKFKDRLTISKDTSKNQVVLTMTNMDPVDTATYYCARGWYYFDYWGHGTLVTVSS VL: DIVMTQTPLSLPVTPGEPASISCRASKSISKYLAWYQQKPGQAPRLLIYSGSTLQSGIPPRFSGSGYGTDFTLTINNIESEDAAYYFCQQHDESPYTFGEGTKVEIK",11 nM
10,"Ab1 Fab variant H2 D65E (Fab, V domains shown, Fab) VH: QVQLQESGPGLVKPSQTLSLTCTVSGYAFTAYNIHWVRQAPGQGLEWMGSFDPYEGGSSYNQKFKDRLTISKDTSKNQVVLTMTNMDPVDTATYYCARGWYYFDYWGHGTLVTVSS VL: DIVMTQTPLSLPVTPGEPASISCRASKSISKYLAWYQQKPGQAPRLLIYSGSTLQSGIPPRFSGSGYGTDFTLTINNIESEDAAYYFCQQHDESPYTFGEGTKVEIK",4.9 nM
11,"Ab1 Fab variant H2 G66D (Fab, V domains shown, Fab) VH: QVQLQESGPGLVKPSQTLSLTCTVSGYAFTAYNIHWVRQAPGQGLEWMGSFDPYDDGSSYNQKFKDRLTISKDTSKNQVVLTMTNMDPVDTATYYCARGWYYFDYWGHGTLVTVSS VL: DIVMTQTPLSLPVTPGEPASISCRASKSISKYLAWYQQKPGQAPRLLIYSGSTLQSGIPPRFSGSGYGTDFTLTINNIESEDAAYYFCQQHDESPYTFGEGTKVEIK",2.2 nM
12,"Ab1 Fab variant H2 G66H (Fab, V domains shown, Fab) VH: QVQLQESGPGLVKPSQTLSLTCTVSGYAFTAYNIHWVRQAPGQGLEWMGSFDPYDHGSSYNQKFKDRLTISKDTSKNQVVLTMTNMDPVDTATYYCARGWYYFDYWGHGTLVTVSS VL: DIVMTQTPLSLPVTPGEPASISCRASKSISKYLAWYQQKPGQAPRLLIYSGSTLQSGIPPRFSGSGYGTDFTLTINNIESEDAAYYFCQQHDESPYTFGEGTKVEIK",1.4 nM
13,"Ab1 Fab variant H1 F31V (Fab, V domains shown, Fab) VH: QVQLQESGPGLVKPSQTLSLTCTVSGYAVTAYNIHWVRQAPGQGLEWMGSFDPYDGGSSYNQKFKDRLTISKDTSKNQVVLTMTNMDPVDTATYYCARGWYYFDYWGHGTLVTVSS VL: DIVMTQTPLSLPVTPGEPASISCRASKSISKYLAWYQQKPGQAPRLLIYSGSTLQSGIPPRFSGSGYGTDFTLTINNIESEDAAYYFCQQHDESPYTFGEGTKVEIK",8.3 nM
14,"Ab1 Fab variant H1 Y39F (Fab, V domains shown, Fab) VH: QVQLQESGPGLVKPSQTLSLTCTVSGYAFTAFNIHWVRQAPGQGLEWMGSFDPYDGGSSYNQKFKDRLTISKDTSKNQVVLTMTNMDPVDTATYYCARGWYYFDYWGHGTLVTVSS VL: DIVMTQTPLSLPVTPGEPASISCRASKSISKYLAWYQQKPGQAPRLLIYSGSTLQSGIPPRFSGSGYGTDFTLTINNIESEDAAYYFCQQHDESPYTFGEGTKVEIK",5.7 nM
15,"Ab1 Fab variant H1 A33M (Fab, V domains shown, Fab) VH: QVQLQESGPGLVKPSQTLSLTCTVSGYAFTMYNIHWVRQAPGQGLEWMGSFDPYDGGSSYNQKFKDRLTISKDTSKNQVVLTMTNMDPVDTATYYCARGWYYFDYWGHGTLVTVSS VL: DIVMTQTPLSLPVTPGEPASISCRASKSISKYLAWYQQKPGQAPRLLIYSGSTLQSGIPPRFSGSGYGTDFTLTINNIESEDAAYYFCQQHDESPYTFGEGTKVEIK",15 nM
16,"Ab1 Fab variant H1 Y39W (Fab, V domains shown, Fab) VH: QVQLQESGPGLVKPSQTLSLTCTVSGYAFTAWNIHWVRQAPGQGLEWMGSFDPYDGGSSYNQKFKDRLTISKDTSKNQVVLTMTNMDPVDTATYYCARGWYYFDYWGHGTLVTVSS VL: DIVMTQTPLSLPVTPGEPASISCRASKSISKYLAWYQQKPGQAPRLLIYSGSTLQSGIPPRFSGSGYGTDFTLTINNIESEDAAYYFCQQHDESPYTFGEGTKVEIK",3.3 nM
17,"Ab1 Fab variant H1 A30T (Fab, V domains shown, Fab) VH: QVQLQESGPGLVKPSQTLSLTCTVSGYTFTAYNIHWVRQAPGQGLEWMGSFDPYDGGSSYNQKFKDRLTISKDTSKNQVVLTMTNMDPVDTATYYCARGWYYFDYWGHGTLVTVSS VL: DIVMTQTPLSLPVTPGEPASISCRASKSISKYLAWYQQKPGQAPRLLIYSGSTLQSGIPPRFSGSGYGTDFTLTINNIESEDAAYYFCQQHDESPYTFGEGTKVEIK",16 nM
18,"Ab1 Fab variant H1 Y29G (Fab, V domains shown, Fab) VH: QVQLQESGPGLVKPSQTLSLTCTVSGGAFTAYNIHWVRQAPGQGLEWMGSFDPYDGGSSYNQKFKDRLTISKDTSKNQVVLTMTNMDPVDTATYYCARGWYYFDYWGHGTLVTVSS VL: DIVMTQTPLSLPVTPGEPASISCRASKSISKYLAWYQQKPGQAPRLLIYSGSTLQSGIPPRFSGSGYGTDFTLTINNIESEDAAYYFCQQHDESPYTFGEGTKVEIK",7.1 nM
19,"Ab1 Fab variant H1 N40P (Fab, V domains shown, Fab) VH: QVQLQESGPGLVKPSQTLSLTCTVSGYAFTAYPIHWVRQAPGQGLEWMGSFDPYDGGSSYNQKFKDRLTISKDTSKNQVVLTMTNMDPVDTATYYCARGWYYFDYWGHGTLVTVSS VL: DIVMTQTPLSLPVTPGEPASISCRASKSISKYLAWYQQKPGQAPRLLIYSGSTLQSGIPPRFSGSGYGTDFTLTINNIESEDAAYYFCQQHDESPYTFGEGTKVEIK",40 nM
20,"Ab1 Fab variant H1 G27N (Fab, V domains shown, Fab) VH: QVQLQESGPGLVKPSQTLSLTCTVSNYAFTAYNIHWVRQAPGQGLEWMGSFDPYDGGSSYNQKFKDRLTISKDTSKNQVVLTMTNMDPVDTATYYCARGWYYFDYWGHGTLVTVSS VL: DIVMTQTPLSLPVTPGEPASISCRASKSISKYLAWYQQKPGQAPRLLIYSGSTLQSGIPPRFSGSGYGTDFTLTINNIESEDAAYYFCQQHDESPYTFGEGTKVEIK",8.4 nM
